Assay results published in the RNAGym collection of RNA variant scans (doi:10.1073/pnas.2313332121).

B1: TPR t1 (parent)
chain: GACCAAUCUGCCCUCAGAGCUCGAGAACAUCUUCGGAUGCAGAGGAGGCAGGCUUCGGUGGCGCGAUAGCGCCAACGUCCUCAACCUCCAAUGCAUCCCACCACAUGAUGAUGCCUGAAGAGCCUUGGUUUUUUG

Variants of: B1
Assay: polymerase ribozyme fitness, log enrichment relative to wild type (log ratio); higher = more active; in vitro selection for triplet polymerase activity
Summary of the method: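 For each subunit of a heterodimeric triplet polymerase ribozyme, a mutant library was built by PCR and transcribed, then taken through a single in vitro selection round in triplicate. Selection involved annealing to a biotinylated primer, the partner subunit and triplets, incubation frozen at −7 °C, gel excision of extended constructs, capture on streptavidin beads and RT-PCR. Genotypes were retained after Illumina sequencing of inputs and outputs only with ≥10 input reads and ≥1 read in each output. Fitness is defined as the logarithm of a genotype's enrichment relative to wild-type enrichment, using inverse-variance-weighted averages across replicates, with the logarithm taken to base 2.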

| Variant | polymerase ribozyme fitness (log ratio) |
| --- | --- |
| A37G C114U U129C | -3.17 |
| G36A C123A | 0.117 |
| G36U G71U G117A | -4.25 |
| A37U C56G U87G | -1.26 |
| A37G C53G G69A G110U U132C | -6.38 |
| C34U C86A C114U | -5.07 |
| C34U G45C C124G | -3.01 |
| G35A G48C C123G | -2.75 |
| G35C C72U C99A C102U U116C U130G | -6.33 |
| G35C G93A | -4.92 |
| G36U C85A C104A | -3.96 |
| A37G U92C U106C G110A | -3.53 |
| G35A G58C | -3.4 |
| A37C G39C | -4.38 |
| A37G U96A | -3.44 |
| G35C C124A | -2.66 |
| C34G C64U | -6.18 |
| G36U C40G U78G C97A U112G | -1.61 |
| G36C C64U C85U | -1.78 |
| C34U G120A A121C | -4.71 |
| A37C G61U U109A | -5.9 |
| A37C A118U | 0.469 |
| G35A U131A | -4.99 |
| G35A C70U | -2.72 |

| Variant | polymerase ribozyme fitness (log ratio) |
| --- | --- |
| G36U G44A C72A C94G C123G | -4.22 |
| G36A C56A G61A | -2.16 |
| G36U C124G | 0.74 |
| G36U C124U | 0.315 |
| A37G G42C | -1.89 |
| A37C G42U C88A A111G | -4.05 |
| C34A U116C | -5.3 |
| G36A U106A G117A | -1.88 |
| C34U G44U | -4.41 |
| G35A G63C G71U C114A | -6.69 |
| G36A G44U C70U A111C | -2.48 |
| G35A C88G | -4.5 |
| G36A G57A G60U U131G | -0.901 |
| C34U G122U | -3.58 |
| G36A C82U C123G | 0.9 |
| A37U A91U U130A | -2.83 |
| A37G G113C | -2.15 |
| A37G G113A | -1.4 |
| A37C A41G C53A C88U | -0.41 |
| C34G G36U C72U U96C G127C U130G | -6.19 |
| A37G C70U | -0.719 |
| A37G C64A | -6.74 |
| G35U C115A G120C | -5.77 |
| A37G A121G | 2.3 |

| Variant | polymerase ribozyme fitness (log ratio) |
| --- | --- |
| G36A C62A C89U A95C C114U | -6.66 |
| G35U G63U | -6.36 |
| A37C C56A U78C U130C | -0.27 |
| G36C C53G C56A A95U | -2.45 |
| G36C C40G C72U C73A | -5.31 |
| A37C C72U G120U A121C | 0.205 |
| A37U A83U U96A C124U U131A | 1.19 |
| G36C A50C G71A A118U G120A | -1.49 |
| G35A C88U C102A | -5.27 |
| G35A C85G U106G G120C | -4.02 |
| G35A C64A C114G U125G | -7.35 |
| C34U C124A | -2.31 |
| C34U C124U | -2.06 |
| G35C C86A C101U U109C C124G | -7.22 |
| G36A A66U C88A C104G G113A C123G C124A | -5.59 |
| A37U C115U | -0.707 |
| A37U C115A | -0.816 |
| G36U U59A A90G C97G U106C | -1.98 |
| G36U U78G C97A | -0.315 |
| G35C C88U | -4.03 |
| A37U C70A | -1.11 |
| A37G U81G A84C | -5.14 |
| G35U C53U G69U G110U | -4.63 |
| G36C C86A | -1.45 |

| Variant | polymerase ribozyme fitness (log ratio) |
| --- | --- |
| G36C C86U | -1.65 |
| C34U C64U C88U | -4.34 |
| A37U G44A A83C G120C U130G | -1.38 |
| G36U C86A | -1.1 |
| C34U A37C G60C C124A | -3.79 |
| A37C A95G | -0.966 |
| A37C C56G | -1 |
| A37U A74C C102A C104U | -2.41 |
| C34U C53U U109G A119U A121C | -6.04 |
| C34G U55C G58A C82A C85U C88A C123U U131G | -6.74 |
| A37U G44A G52U C79A G113U G120U | -5.01 |
| A37U C86U A105G A121C U132C | -1.31 |
| G36A C64G C104G G110A G127U | -6.24 |
| C34G A108G | -6.09 |
| A37U G39U C72U U125G | -3.21 |
| A37C G48U A108U G120C | -5.53 |
| G35A C101U C115A | -3.56 |
| C34U U54A | -4.44 |
| C34G C72A U106G A119U | -7.42 |
| G36U G39A C53A C94G C124G G127C | -2.11 |
| G36C U54G G61U | -5.87 |
| G36C G63U C98U | -3.08 |
| C34G G51U C53A G69U G120U | -7.39 |
| A37G G60U U112C C123G | -0.195 |

| Variant | polymerase ribozyme fitness (log ratio) |
| --- | --- |
| G36U U38C C72A C115G A118U C124G U131C | -5.85 |
| C34G A111G G127A | -5.87 |
| C34U C97U | -4.85 |
| C34A G71U U92A C114G | -7.83 |
| C34U U116C | -5.7 |
| G36C G60A | -0.627 |
| C34A G128C | -4.73 |
| G36C A50U | -1.67 |
| A37U C72U A75U U78G C124A | 1.33 |
| C34G U78G | -6.71 |
| G36U C97A | -0.428 |
| C34U U54A G61A | -4.4 |
| G35A U87A | -3.5 |
| G36A G44A C73G C79U U116G | -5.21 |
| A37U A74C A83U G117U | -3.26 |
| G36U U132A | -0.893 |
| A37U G48A C97U G110U U125C | -6.59 |
| A37C G45A A83C A100U G113C | -4.29 |
| G36C G61C | -2.42 |
| A37G C70U C79A | -3.05 |
| G35A C62U | -4.22 |
| G35A C62A | -5.05 |
| G36A A37G C72U G122A | -1.5 |
| A37U C53G U116A | -3.56 |

| Variant | polymerase ribozyme fitness (log ratio) |
| --- | --- |
| G35U C73G | -5.75 |
| C34A G61U A111G | -2.85 |
| A37C C49A A66C C104U U125G | -1.63 |
| G36U G71A G120C C123G | -1 |
| A37G G39C | -2.69 |
| A37U C80G | -5.42 |
| A37C A68G | -2.51 |
| G36A A43U C62U G113A | -3.5 |
| A37U C73A | -0.559 |
| G36U U78C C101U C123A | -1.09 |
| G36A A46C G61A A90C A118C | -6.53 |
| C34A U59A C114A | -5.37 |
| G35C C49G U78A | -5.52 |
| A37C G44A A50U G120U | -3.3 |
| A37G A84C | -0.444 |
| A37U C72A | -0.493 |
| G36A U54G | -1.04 |
| G36A C94A | -2.77 |
| G36A C72U C85G C89U C94U | -2.78 |
| G35A C53U G57U G69A A83U C115U | -6.36 |
| G36A G71U U106A | -1.11 |
| C34U A41G C53U G69U | -2.44 |
| G36C G61U C70G C80U U81A C88U C104A C114G | -6.29 |
| A37U C53A G63A C94G G120C U131A | -3.11 |

| Variant | polymerase ribozyme fitness (log ratio) |
| --- | --- |
| A37C U54A G93C | -1.23 |
| A37C A75U C89U C102A | -2.92 |
| G36A G45C C114A | -3.75 |
| C34U G39C A50G | -5.57 |
| G36A G69A C73A G122A | -4.15 |
| A37C G42U G48C A50U C70U G120U C124U | -3.73 |
| C34A U55C G60C U129G | -4.03 |
| G36U A46C A50U A84U | -5.6 |
| C34U C88G | -3.99 |
| A37G G57A U106C G120C U129A | -3.11 |
| G36C G61U C114A | -2.77 |
| G35A G42C C73U A84U C123U | -6.85 |
| G36U U112A | 0.888 |
| G36A A46U G47C C56U U106A | -3.75 |
| G36A G42C C76G | -2.73 |
| G36A G45C G58C C64G G117U | -6.11 |
| G36C U55G | -1.03 |
| G36C C72G | -2.37 |
| G36U G60A C94U | -1.8 |
| G36U C40U A121U G122C | -0.484 |
| C34A G69A | -5.23 |
| A37C G39A C62U | -3.21 |
| A37G G44C G48U C73A | -2.25 |
